Test results as given in IntAct's records for PubMed 27153538.

B1: TP53-binding protein 1 (Homo sapiens), Q12888 (parent)
chain: MDPTGSQLDSDFSQQDTPCLIIEDSQPESQVLEDDSGSHFSMLSRHLPNLQTHKENPVLDVVSNPEQTAGEERGDGNSGFNEHLKENKVADPVDSSNLDTCGSISQVIEQLPQPNRTSSVLGMSVESAPAVEEEKGEELEQKEKEKEEDTSGNTTHSLGAEDTASSQLGFGVLELSQSQDVEENTVPYEVDKEQLQSVTTNSGYTRLSDVDANTAIKHEEQSNEDIPIAEQSSKDIPVTAQPSKDVHVVKEQNPPPARSEDMPFSPKASVAAMEAKEQLSAQELMESGLQIQKSPEPEVLSTQEDLFDQSNKTVSSDGCSTPSREEGGCSLASTPATTLHLLQLSGQRSLVQDSLSTNSSDLVAPSPDAFRSTPFIVPSSPTEQEGRQDKPMDTSVLSEEGGEPFQKKLQSGEPVELENPPLLPESTVSPQASTPISQSTPVFPPGSLPIPSQPQFSHDIFIPSPSLEEQSNDGKKDGDMHSSSLTVECSKTSEIEPKNSPEDLGLSLTGDSCKLMLSTSEYSQSPKMESLSSHRIDEDGENTQIEDTEPMSPVLNSKFVPAENDSILMNPAQDGEVQLSQNDDKTKGDDTDTRDDISILATGCKGREETVAEDVCIDLTCDSGSQAVPSPATRSEALSSVLDQEEAMEIKEHHPEEGSSGSEVEEIPETPCESQGEELKEENMESVPLHLSLTETQSQGLCLQKEMPKKECSEAMEVETSVISIDSPQKLAILDQELEHKEQEAWEEATSEDSSVVIVDVKEPSPRVDVSCEPLEGVEKCSDSQSWEDIAPEIEPCAENRLDTKEEKSVEYEGDLKSGTAETEPVEQDSSQPSLPLVRADDPLRLDQELQQPQTQEKTSNSLTEDSKMANAKQLSSDAEAQKLGKPSAHASQSFCESSSETPFHFTLPKEGDIIPPLTGATPPLIGHLKLEPKRHSTPIGISNYPESTIATSDVMSESMVETHDPILGSGKGDSGAAPDVDDKLCLRMKLVSPETEASEESLQFNLEKPATGERKNGSTAVAESVASPQKTMSVLSCICEARQENEARSEDPPTTPIRGNLLHFPSSQGEEEKEKLEGDHTIRQSQQPMKPISPVKDPVSPASQKMVIQGPSSPQGEAMVTDVLEDQKEGRSTNKENPSKALIERPSQNNIGIQTMECSLRVPETVSAATQTIKNVCEQGTSTVDQNFGKQDATVQTERGSGEKPVSAPGDDTESLHSQGEEEFDMPQPPHGHVLHRHMRTIREVRTLVTRVITDVYYVDGTEVERKVTEETEEPIVECQECETEVSPSQTGGSSGDLGDISSFSSKASSLHRTSSGTSLSAMHSSGSSGKGAGPLRGKTSGTEPADFALPSSRGGPGKLSPRKGVSQTGTPVCEEDGDAGLGIRQGGKAPVTPRGRGRRGRPPSRTTGTRETAVPGPLGIEDISPNLSPDDKSFSRVVPRVPDSTRRTDVGAGALRRSDSPEIPFQAAAGPSDGLDASSPGNSFVGLRVVAKWSSNGYFYSGKITRDVGAGKYKLLFDDGYECDVLGKDILLCDPIPLDTEVTALSEDEYFSAGVVKGHRKESGELYYSIEKEGQRKWYKRMAVILSLEQGNRLREQYGLGPYEAVTPLTKAADISLDNLVEGKRKRRSNVSSPATPTASSSSSTTPTRKITESPRASMGVLSGKRKLITSEEERSPAKRGRKSATVKPGAVGAGEFVSPCESGDNTGEPSALEEQRGPLPLNKTLFLGYAFLLTMATTSDKLASRSKLPDGPTGSSEEEEEFLEIPPFNKQYTESQLRAGAGYILEDFNEAQCNTAYQCLLIADQHCRTRKYFLCLASGIPCVSHVWVHDSCHANQLQNYRNYLLPAGYSLEEQRILDWQPRENPFQNLKVLLVSDQQQNFLELWSEILMTGGAASVKQHHSSAHNKDIALGVFDVVVTDPSCPASVLKCAEALQLPVVSQEWVIQCLIVGERIGFKQHPKYKHDYVSH

Variants of: B1
Details: with h4_human H4C16, P62805

Variant | effect of a mutation on the interaction
D1521R | disrupting interaction strength
